Experimental data taken from the DeepSol protein solubility set.

Assay: soluble on expression in E. coli; label from the status in PepcDB or PDB records

| Sequence | soluble on expression in E. coli |
| --- | --- |
| MGSDKIHHHHHHMMSKYPLLGMTLIELQSLVKRLGMPGFAAKQIASWLYDKKVTSIDEMTNLSLKYRELLKQNYEVGAEAPVEEMRSVDGTVKYLYPVGENHFVESVYIPDDERATLCISSQVGCKMNCKFCMTGKQGYSANLTAHQIINQIHSLPERDKLTNVVMMGMGEPLDNLEEVLKALDILTGSYGYAWSPKRITVSTVGLRKGLRRFIEESDCHLAISLHSPVTAQRAELMPAEKAFSITEMVELLKNYDFSKQRRLSFEYIVFKGLNDSQVYAKELLKLLRGLDCRMNLIRFHSIPGVALEGADMDTMTRFRDYLTTHGLFTTIRASRGEDIFAACGMLSTAKQEENNKS | not soluble |
| MAAKRLAVLCIFLLPNTQFRQLRLAETAEELPQLLREAEKASWTYLEFLESITRYELAKREAKSLEKRMKWARFPFVKSLDEFELRGQNVLTARQLSQLRELSWLEQQYNLILLGPPGIGKTYIAIGLGLEAVYRGFHVYFATMGELVQLLKSEEYLNKSKVQLKRIRNADLVIIDDLMYMAMDQREANLFFHLINHLYERSSIILTSNKSPEEWGHLIGDQGITTAILDRLLHRVEVIHGGENEESHRMKNRKSIFSAEVLEHHHHHH | not soluble |
| MGSDKIHHHHHHMHSMALPESSYERLRAADCADEIAYVRACLRLYFSGAAAAAGDVSMPNLSAAAVADIARLNKVATFVLKVLSRAPVGERPAELFQWLDTYRRRTVSMNAACLMDSMVIHQALRDRQIDFVFLKGPFQQHLLYDDHFMKPSGDVDILVSPAGFSRARDALRSIGYEVSGKSRSVWWVRFLGEQHMIRGNGPSTVDLHYRLQQPGSPSPRDADGFLRRKRLVEITGTEVPFTSAADTLMLSCISVAKALFNHEPCAGYVCDIRASANRLGEADQQRVLDAAVSQGLDDTLLLGLRAADVLLGATGTLLSERAKPILSRIGNEDLLNMVIAPWLSSLRWPQRRTVLWELCGRAPVRYLAEAAWAASADISRRIFERPASP | not soluble |
| MAHHHHHHMMRLLRNNVKNMFLKNCFLVRNTNVKCWRTDRFHNYNMWNTVENNGIRGFSSSSFEEIKKMNMFTAINSAMHNVFESNPNSVLLGEDVAFGGVFRCSLDLLKKYGNMRVFNTPLCEQGIIGFAIGLAENGFTTIAEIQFGDYIFPAFDQIVNDVAKYRYRSGSSFDVGKLTIRSTWGAVGHGGLYHSQSPEAFFAHAAGIKIIVPSDAYKAKGLLLSAINDPNPCLFFEPKILYRSSVCDVPTGPYQLELGKADVVRQGSDVTIVTWGSLVHKMKNAAEILSKKHNIECEVIDLQSIIPWDIETVQKSVEKTGRLLITHEAQLTNGFGAEIAAKIQERCFYNLHTPIKRVCGYDTPFPHVYEPFYMPDAHKVIYEVKKMMK | not soluble |
| MSTPPAAPLRIALVGDHDPHITAHRAIPLALRLAGEALGLEIAFDWLASDRLPAEPALERYDGFWCVPGSPYRDADAVLRLIAHARGRRRPFLGTCAGFQHTILEFARNALGWQAATHGEEHPHSDQAVIAALPCALLEAREDVRLLRGSRLALAYAADWIEADYHCRYAIAPRFAAELTGGALRASAWSADGAIRAVELEQHPFFVATLFQPERAALAGVLPPLPKAFVEACRTQRRDHPRRGPTPYYAVIFSSHRSAVDDGYAEAAERMLELASRQPGYLGVESVRGANGFGITVSYWDSEAAIRAWSRHAEHRDAQARGRHDWYAGFSARIARVEREYAFPAQPDTAQSPASS | not soluble |
| DDSCQIGTSFTGLDMTKYVGTWYELFRTPNSDEEDFTNCEYDKYTLDENGVIQVTSVAYTNSIRGFITSTGTVPSWTEDTFDIAYGDDETWSSTYFMVGTDYQTYSIVAGCLDNDYSRHLYWIASHETSFDDATKAKVNEVLAPYNLSLDDMEPVDQSYCVQY | soluble |
| MSAFFLNMEKSIITQKIIAKAFKDLMQSNAYHQISVSDIMQTAKIRRQTFYNYFQNQEELLSWIFENDFAELINDNSDYYGWQNELLLLLRYLDENQIFYQKIFVIDKNFEHFFLIQWENLLDKVIFDQEKKSDYHWSDLEKSFICRYNAAAICAITRESIIRGNSLEKLYSQIVNLLLAQIKIFESLEHHHHHH | soluble |
| MSLQLSNFLELERADTFENVERVQNAVATEQSYLDYIVQDWACWDDTYQFIEDKNPEYIRVDLQNQTLSGINVNVMIFVNNSGKVVYVKSVNTSTAEEAPVPRKLLAMIEDGGLLTEGENDSISGFVLLDEDPMFIACHPILTTKYEGPSRGTLIFGRYFDDALLESFKKVTRSSLLMYRADEEMPQDFQNKIKNFSQNSDNIVVDPLNKNQIAGYFGLKDIKGDIALILRADFPREGHHHHHH | soluble |
| MANSAGSMAPKVFYISDGTAITAEVFGHAVLSQFPLEFESLTIPFVETLAKAENVKRQINDCFITTGERPLVFHSIVKPEIRDIIYSSEGLDYDFLNTFVAPLEQHLGVSASPVLHRTHGKANQGYEARIDAINFAMDNDDGQTMKHMDQADLILLGVSRCGKTPSSLYLSMQFGIKAANYPFTEDDMDNLKLPEALKRNKKKLFGLTIDPVRLHEIRQSRMENSRYSSLKQCRLEVKEVEMMFKRERIPYIDTTNHSVEEIATKILDVTGLERHMFLEHHHHHH | not soluble |
| MSLAKAYDHLFKLLLIGDSGVGKTCLIIRFAEDNFNNTYISTIGIDFKIRTVDIEGKKIKLQVWDTAGQERFKTITTAYYRGAMGIILVYDITDEKSFENIQNWMKSIKENASAGVERLLLGNKCDMEAKRKVQKEQADKLAREHGIRFFETSAKSSMNVDEAFSSLARDILLKSGGRRSGNEGHHHHHH | soluble |
| MGSDKIHHHHHHGQYIKKETVNSQVYAVIYAEGLAGSAQWVSGFKMMKNDATIRHQVSRGNGGNPIVNDRIPMRFIIAPTDVANVTWMQAEGAGDGNGNLNADFRSTAATGCRSYKIAGDPNRKWRVPTQRELQLMWLFREPVGVIYPAAQMENVSSKIYWAATEEDAANAWYFDFKQGVPQCSWQLKTTSSNVRCVSDY | not soluble |
| MGSSHHHHHHSSGLVPRGSHMSSENIPLRVQFKRMKAAEWARSDVILLESEIGFETDTGFARAGDGHNRFSDLGYISPLDYNLLTNKPNIDGLATKVETAQKLQQKADKETVYTKAESKQELDKKLNLKGGVMTGQLKFKPAATVAYSSSTGGAVNIDLSSTRGAGVVVYSDNDTSDGPLMSLRTGKETFNQSALFVDYKGTTNAVNIAMRQPTTPNFSSALNITSGNENGSAMQLRGSEKALGTLKITHENPSIGADYDKNAAALSIDIVKKTNGAGTAAQGIYINSTSGTTGKLLRIRNLSDDKFYVKSDGGFYAKETSQIDGNLKLKDPTANDHAATKAYVDKAISELKKLILKK | soluble |
| MSLHLSKGFSNMIGVVLPTVNLPYFAELIAGIADAAAESGVHLSLFQTNYEVQKEIFALSQLKQRQVDGLIFCSKALADEKLMEWEGPILLCQNSDNARFPTISIPHQEAFRNGLDYLIAKGHKKIAICLARKKGMNSHFRIKAYKEALEEIGEAFREDWVIEKAITINDGKALFHKWNTWKEKPTAIFVANDQVSAGLFLEAKNQRVSVPDELAILSVDNHEISQALGITTIDIQTREMGKQAFAILEKRIQGQPIERKVLDYRLIERSTVEGHHHHHH | soluble |
| MEIRTFLERALKEDLGHGDLFERVLEKDFKATAFVRAKQEGVFSGEKYALELLEMTGIECVQTIKDKERFKPKDALMEIRGDFSMLLKVERTLLNLLQHSSGIATLTSRFVEALNSHKVRLLDTRKTRPLLRIFEKYSVLNGGASNHRLGLDDALMLKDTHLRHVKDLKSFLTHARKNLPFTAKIEIECESFEEAKNAMNAGADIVMCDNLSVLETKEIAAYRDAHYPFVLLEASGNISLESINAYAKSGVDAISVGALIHQATFIDMHMKMA | soluble |
| MTEILQTLKEYIPISLEEMSGIKLMNRTDTKYVTSYQILKEILLAAGHDYRVQEVNGEYNIAYHTIYLDTADRDMYLTHQNGRVVREKIRIRTYVDSDLTFLEVKNKNNKGRTDKKRIRIGSIDTIKEDGGEAFLRQHAWYEQSQLLPLLENSFRRITLVNKHKTERLTIDTGVTFCCLQSGKISSLDNIVIIELKRDGHNSSPIKEILRKLHIQSSGFSKYCIGSALTVSHLKCNRLKPKLRMLNKMGVYLEHHHHHH | soluble |
| MSLASTIMSQEVSWTDILEKHPALRWIKPIPEDWEIFPKHLCAFESFLYVAVGQEVRSLDCRLLKHKNEASHKNFYKKLFNPELDFMIEQICLSKNGRFLAVVGKSKIVILGLRSKLSEQNPLAESVSNFGESVNNFSNSEHQENGTNSLKLSEVTICSVAVINPSSQIVSVRFHPLGKSGRSLVVLTETSLLLYEAGNGVLMPDYEIPLKLTHQASNSFDADVDLHIPTAFCFSNVSQGWGVFTIYILTRGGDVFSVCPVMPANAMIPQDVLKQIRLILTKKEDDADAENHRRNVHWITKLLGEAALANDLSTSEGHHHHHH | soluble |
| MERVNERREQNNPNGCCLRDEDFSQFNSEAFLRELAADLNEDDTNDLSSSLFATSRIPEEHIRSTGLVERAEHYNKSVDQRTMTDARIAFEEEQLKNGKSPNAGTSGMENLADSGTHVPRRGRGDYFGKLRSFENGVSFPSRPPLTSEHSSSGDSYFNNSHKTTPNYRRFANSNDSSRDNSQMEYKAENDASHTSQSSNRFGFNSQINRTDIHPPAARHTFNPAAAYNGKITPDFRFNYIPNAAVPAPSVVPVIATHPGVAPPSIVPSPIRIGQRYPKRPDNMPKPSSEPKHLNHNYYQIELYGATQEDRIAQRIEKTVRQTEAPVRRF | not soluble |
| MSLALITLRQRNNKVEVRVFDTGIGIDADKQKAIFTDFYRIQDSDEAGVGLGLGVVRRLTEQMHATIDVSSVKRKGSCFILNMRIGSPVTESNVTFNKVKQTLSGLNVLCVDDKNENLDALETLLTRWEVNVVMANTYESALTLLASNKHPSPDVLLIDYQLDKDQDGLSLIKDIKAQVGKHIPSAIVTALQDQELKETCLSQGIQFLNKPLKPAKLRALLQSLAKQKSEGHHHHHH | not soluble |
| SANQNFNNSETLGHQGSHVVTLQLRIDGMHCKSCVLNIEENIGQLLGVQSIQVSLENKTAQVKYDPSCTSPVALQRAIEALPPGNFKVSLPDGAEGSGTDHRSSSSHSPGSPPRNQVQGTCSTTLIAIAGMTCASCVHSIEGMISQLEGVQQISVSLAEGTATVLYNPAVISPEELRAAIEDMGFEASVVSESCSTNPLGNH | soluble |
| MPFSQIGINGIVNLKKMHVKNYRAPQVSVLNFLPPRHIVLGLENLDIGLGSEFTANAVPIVVEGSLVGQITGMTVALTTELLTDVTGKMNAVVRNCSALIGNSHIVLNPTGPMSIFVKTFEPMINDSVRQRIPEMFCSRLQNLIEKNISKLFEFITKIDLEDYFPKASNVEKDVMNM | not soluble |
| NKDGPVCLQVKPCTPEFYQTHFQLAYRLQSRPRGLALVLSNVHFTGEKELEFRSGGDVDHSTLVTLFKLLGYDVHVLCDQTAQEMQEKLQNFAQLPAHRVTDSCIVALLSHGVEGAIYGVDGKLLQLQEVFQLFDNANCPSLQNKPKMFFIQACRGDETDRGVDQQD | soluble |
| MSIESSATPTTPNAEALQLNSTEVRILGCLIEKQATNPETYPLTLNALVIACNQKTSRDPVMNLTQGQVGQSLRALEGRGLTRLVMGSRADRWEHKVDKGLELVPAQVILTGLLLLRGPQTVSELLTRSNRMHDFEDSEQVVHQLERLIARGLATLVPRQSGQREDRYMHLIGDPEDLQD | soluble |
| MTFIKRLEDAYETLLGNYPAGVSSTSTSKYNEIRKIVSEAFLIGENEVYVTGTSRRISNLDTRFAQGNQRNKHTRMAVAFISIPSVDDSELDELIIRTRNSAITTSSKFCNGEERGTIFDGILLFLVFEGETKVYPLAFLVFENDFELKEKAEELIPGIELKEYPRANQSPAQENNKSAKNEDEESAKSYVVFLDIEEDGSIVEFVEDKDKTYRIGDMIWTASHTNGSSAITRRLEVIEVVENLVVCKIKHKYNEPVDKNSLLKFVNIEQDLISFLDLHPNVQNGSEGFVSGDIVDENATTSSDDLPEDFENN | not soluble |
